The results in this text go back to the supplement of paper PMC9112550, “Optimization of the antimicrobial peptide Bac7 by deep mutational scanning” (BMC Biology, 2022).

The test system of this data set is Escherichia coli TOP10. The data set is described as follows: shrunken log2 fold change of peptide-encoding DNA abundance (4.5 h post-induction vs induction); higher = less antimicrobial activity (less host growth inhibition). Conditions: time post-induction: 4.5 h; library: site-saturation at positions 5, 18, 19, 20.
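Further: peptides expressed intracellularly from a pBAD plasmid library in pooled LB shake-flask culture, induced with 0.3% L-arabinose, DNA abundance read by NGS, three biological replicates, DESeq2 with apeglm shrinkage.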

In the case of RRIRARPPRLPRPRPRPGKKPRP, the “shrunken log2 fold change” value was -0.133.

Take RRIRHRPPRLPRPRPRPGSQPRP: the “shrunken log2 fold change” value turned out to be 0.0187.

Take RRIRNRPPRLPRPRPRPTYVPRP: the “shrunken log2 fold change” value is -0.143.

For RRIRQRPPRLPRPRPRPYVNPRP, the “shrunken log2 fold change” value is -0.00544.

As to RRIRPRPPRLPRPRPRPMIGPRP, the “shrunken log2 fold change” value was 0.00964.

For RRIRSRPPRLPRPRPRPIFYPRP, the “shrunken log2 fold change” value is -0.387.

For the sequence RRIRERPPRLPRPRPRPTSWPRP, the “shrunken log2 fold change” value was 0.0831.

Regarding RRIRYRPPRLPRPRPRPRCGPRP, the “shrunken log2 fold change” value was -0.0223.

For the sequence RRIRARPPRLPRPRPRPRWCPRP, the “shrunken log2 fold change” value was determined as 0.0438.

For the sequence RRIRFRPPRLPRPRPRPETWPRP, the “shrunken log2 fold change” value amounted to 0.0692.

For RRIRGRPPRLPRPRPRPNCEPRP, the “shrunken log2 fold change” value was found to be 0.376.

Regarding RRIRTRPPRLPRPRPRPCVNPRP, the “shrunken log2 fold change” value was -0.0913.

For the sequence RRIRGRPPRLPRPRPRPKVVPRP, the “shrunken log2 fold change” value came to 0.12.

For RRIRFRPPRLPRPRPRPYYLPRP, the “shrunken log2 fold change” value was -0.392.

Take RRIRNRPPRLPRPRPRPVFEPRP: the “shrunken log2 fold change” value came to 0.07.

In the case of RRIRNRPPRLPRPRPRPDAAPRP, the “shrunken log2 fold change” value was 0.45.

Consider RRIRKRPPRLPRPRPRPPELPRP, for which the “shrunken log2 fold change” value is 0.23.

Turning to RRIRSRPPRLPRPRPRPFLWPRP, the “shrunken log2 fold change” value was -0.0904.

Take RRIRERPPRLPRPRPRPPVFPRP: the “shrunken log2 fold change” value is -0.152.

For the sequence RRIRERPPRLPRPRPRPKDWPRP, the “shrunken log2 fold change” value came out at 0.111.

On to RRIRRRPPRLPRPRPRPEDIPRP, for which the “shrunken log2 fold change” value stood at 0.06.

Consider RRIRLRPPRLPRPRPRPLMCPRP, for which the “shrunken log2 fold change” value is -0.422.

For RRIRKRPPRLPRPRPRPSSWPRP, the “shrunken log2 fold change” value worked out at 0.147.

In the case of RRIRNRPPRLPRPRPRPVAHPRP, the “shrunken log2 fold change” value was -0.0475.

In the case of RRIRQRPPRLPRPRPRPNRLPRP, the “shrunken log2 fold change” value worked out at 0.0179.

With RRIRMRPPRLPRPRPRPKQLPRP, the “shrunken log2 fold change” value amounted to 0.83.

RRIRLRPPRLPRPRPRPEGSPRP: the “shrunken log2 fold change” value is -0.0436.

In the case of RRIRDRPPRLPRPRPRPHRSPRP, the “shrunken log2 fold change” value is -0.015.

RRIRGRPPRLPRPRPRPVKYPRP: the “shrunken log2 fold change” value stood at 0.235.

Take RRIRQRPPRLPRPRPRPNIAPRP: the “shrunken log2 fold change” value was -0.0856.

With RRIRYRPPRLPRPRPRPHIFPRP, the “shrunken log2 fold change” value is -0.255.

Turning to RRIRPRPPRLPRPRPRPMMYPRP, the “shrunken log2 fold change” value is -0.198.

On to RRIRWRPPRLPRPRPRPDPLPRP, for which the “shrunken log2 fold change” value came out at 0.221.

Take RRIRCRPPRLPRPRPRPEYMPRP: the “shrunken log2 fold change” value stood at 0.0436.

On to RRIRWRPPRLPRPRPRPWTNPRP, for which the “shrunken log2 fold change” value came to 0.0442.

Regarding RRIRSRPPRLPRPRPRPYNCPRP, the “shrunken log2 fold change” value is -0.171.

With RRIRTRPPRLPRPRPRPCICPRP, the “shrunken log2 fold change” value was -0.119.

With RRIRKRPPRLPRPRPRPLEDPRP, the “shrunken log2 fold change” value was -0.0129.

In the case of RRIRLRPPRLPRPRPRPGEIPRP, the “shrunken log2 fold change” value was -0.141.

With RRIRIRPPRLPRPRPRPCKPPRP, the “shrunken log2 fold change” value was -0.19.

With RRIRYRPPRLPRPRPRPLLMPRP, the “shrunken log2 fold change” value is -0.547.

As to RRIRFRPPRLPRPRPRPCLTPRP, the “shrunken log2 fold change” value was -0.134.

In the case of RRIRPRPPRLPRPRPRPTNKPRP, the “shrunken log2 fold change” value is -0.208.

On to RRIRARPPRLPRPRPRPPWVPRP, for which the “shrunken log2 fold change” value is 0.254.

Regarding RRIRCRPPRLPRPRPRPQVWPRP, the “shrunken log2 fold change” value was -0.0474.

Regarding RRIRTRPPRLPRPRPRPAQIPRP, the “shrunken log2 fold change” value is 0.358.

Turning to RRIRARPPRLPRPRPRPYQIPRP, the “shrunken log2 fold change” value is -0.385.

Take RRIRRRPPRLPRPRPRPRRGPRP: the “shrunken log2 fold change” value worked out at 0.788.

On to RRIRGRPPRLPRPRPRPNTFPRP, for which the “shrunken log2 fold change” value was 0.00502.

In the case of RRIRTRPPRLPRPRPRPVKMPRP, the “shrunken log2 fold change” value is -0.0502.

Consider RRIRWRPPRLPRPRPRPVIDPRP, for which the “shrunken log2 fold change” value stood at 0.373.

RRIRERPPRLPRPRPRPQEEPRP: the “shrunken log2 fold change” value was -0.000946.

RRIRTRPPRLPRPRPRPAAHPRP: the “shrunken log2 fold change” value came out at 0.199.

For RRIRLRPPRLPRPRPRPHMRPRP, the “shrunken log2 fold change” value worked out at 0.125.

In the case of RRIRMRPPRLPRPRPRPDEDPRP, the “shrunken log2 fold change” value was -0.0149.

Regarding RRIRTRPPRLPRPRPRPWPPPRP, the “shrunken log2 fold change” value came to 0.154.

As for RRIRHRPPRLPRPRPRPQINPRP, the “shrunken log2 fold change” value was -0.827.

For the sequence RRIRYRPPRLPRPRPRPRCPPRP, the “shrunken log2 fold change” value is -0.167.

For the sequence RRIRCRPPRLPRPRPRPTLNPRP, the “shrunken log2 fold change” value is -0.232.

RRIRQRPPRLPRPRPRPPQMPRP: the “shrunken log2 fold change” value is -0.089.

With RRIRRRPPRLPRPRPRPAWIPRP, the “shrunken log2 fold change” value came to 0.358.

Take RRIRQRPPRLPRPRPRPPIPPRP: the “shrunken log2 fold change” value was -0.0174.

Turning to RRIRWRPPRLPRPRPRPEEQPRP, the “shrunken log2 fold change” value is 0.149.

On to RRIRLRPPRLPRPRPRPGRDPRP, for which the “shrunken log2 fold change” value turned out to be 0.26.

For RRIRFRPPRLPRPRPRPQRYPRP, the “shrunken log2 fold change” value was -0.139.

As for RRIRNRPPRLPRPRPRPTKSPRP, the “shrunken log2 fold change” value turned out to be 0.141.

As to RRIRTRPPRLPRPRPRPALFPRP, the “shrunken log2 fold change” value was found to be 0.000901.

For RRIRSRPPRLPRPRPRPTTPPRP, the “shrunken log2 fold change” value stood at 0.502.

Consider RRIRHRPPRLPRPRPRPECQPRP, for which the “shrunken log2 fold change” value was -0.0633.

RRIRFRPPRLPRPRPRPHTTPRP: the “shrunken log2 fold change” value is -0.155.

As for RRIRTRPPRLPRPRPRPQWKPRP, the “shrunken log2 fold change” value is 0.0581.

For the sequence RRIRCRPPRLPRPRPRPCAMPRP, the “shrunken log2 fold change” value was -0.103.

Take RRIRRRPPRLPRPRPRPIPIPRP: the “shrunken log2 fold change” value is -0.0501.

Turning to RRIRHRPPRLPRPRPRPCYIPRP, the “shrunken log2 fold change” value was -0.0479.

Regarding RRIRGRPPRLPRPRPRPGYSPRP, the “shrunken log2 fold change” value was 2.2.

Take RRIRNRPPRLPRPRPRPRMKPRP: the “shrunken log2 fold change” value is -0.0273.

As to RRIRARPPRLPRPRPRPIPVPRP, the “shrunken log2 fold change” value came out at 0.161.

RRIRWRPPRLPRPRPRPNNQPRP: the “shrunken log2 fold change” value was -0.494.

Take RRIRVRPPRLPRPRPRPIMVPRP: the “shrunken log2 fold change” value is -0.219.

In the case of RRIRARPPRLPRPRPRPACVPRP, the “shrunken log2 fold change” value is 0.707.

Regarding RRIRTRPPRLPRPRPRPWIVPRP, the “shrunken log2 fold change” value was -0.0452.

Turning to RRIRHRPPRLPRPRPRPYAEPRP, the “shrunken log2 fold change” value was -0.0381.

Consider RRIRFRPPRLPRPRPRPAQFPRP, for which the “shrunken log2 fold change” value worked out at 0.156.

RRIRFRPPRLPRPRPRPWTFPRP: the “shrunken log2 fold change” value was -0.797.

For RRIRWRPPRLPRPRPRPGHDPRP, the “shrunken log2 fold change” value came to 0.043.

Regarding RRIRNRPPRLPRPRPRPLSFPRP, the “shrunken log2 fold change” value is -0.387.

As for RRIRQRPPRLPRPRPRPHAGPRP, the “shrunken log2 fold change” value was -0.084.

RRIRCRPPRLPRPRPRPLDIPRP: the “shrunken log2 fold change” value is -0.422.

As for RRIRVRPPRLPRPRPRPPDRPRP, the “shrunken log2 fold change” value was determined as 0.379.

Consider RRIRHRPPRLPRPRPRPIAVPRP, for which the “shrunken log2 fold change” value is -0.219.

As to RRIRCRPPRLPRPRPRPFLSPRP, the “shrunken log2 fold change” value was -0.28.

RRIRFRPPRLPRPRPRPFPMPRP: the “shrunken log2 fold change” value is -0.0754.

For RRIRARPPRLPRPRPRPVAIPRP, the “shrunken log2 fold change” value was 0.111.

RRIRGRPPRLPRPRPRPADNPRP: the “shrunken log2 fold change” value is -0.0713.

On to RRIRWRPPRLPRPRPRPLIAPRP, for which the “shrunken log2 fold change” value came out at 0.273.

For the sequence RRIRYRPPRLPRPRPRPEDTPRP, the “shrunken log2 fold change” value is -0.00443.

RRIRGRPPRLPRPRPRPYFCPRP: the “shrunken log2 fold change” value was -0.119.

As to RRIRNRPPRLPRPRPRPCKMPRP, the “shrunken log2 fold change” value was -0.00674.

For the sequence RRIRMRPPRLPRPRPRPWEMPRP, the “shrunken log2 fold change” value was -0.0802.

As for RRIRRRPPRLPRPRPRPQGMPRP, the “shrunken log2 fold change” value worked out at 0.133.

As to RRIRTRPPRLPRPRPRPQDNPRP, the “shrunken log2 fold change” value was -0.669.

RRIRPRPPRLPRPRPRPPYRPRP: the “shrunken log2 fold change” value is 0.103.

For the sequence RRIRVRPPRLPRPRPRPEPFPRP, the “shrunken log2 fold change” value was 0.0811.

Regarding RRIRTRPPRLPRPRPRPCGIPRP, the “shrunken log2 fold change” value turned out to be 0.0859.

Regarding RRIRYRPPRLPRPRPRPNNLPRP, the “shrunken log2 fold change” value was -0.582.

Regarding RRIRPRPPRLPRPRPRPMLTPRP, the “shrunken log2 fold change” value is -0.333.

For the sequence RRIRRRPPRLPRPRPRPKCHPRP, the “shrunken log2 fold change” value stood at 0.0704.

For the sequence RRIRMRPPRLPRPRPRPFDHPRP, the “shrunken log2 fold change” value was -0.00544.

RRIRFRPPRLPRPRPRPDLPPRP: the “shrunken log2 fold change” value is -0.0804.

Turning to RRIRERPPRLPRPRPRPVSDPRP, the “shrunken log2 fold change” value is -0.26.

As for RRIRDRPPRLPRPRPRPLNFPRP, the “shrunken log2 fold change” value was -0.139.

On to RRIRGRPPRLPRPRPRPMCTPRP, for which the “shrunken log2 fold change” value stood at 2.37.

For the sequence RRIRVRPPRLPRPRPRPNYWPRP, the “shrunken log2 fold change” value is -0.307.

In the case of RRIRTRPPRLPRPRPRPLMSPRP, the “shrunken log2 fold change” value was found to be 0.0356.

Turning to RRIRRRPPRLPRPRPRPPADPRP, the “shrunken log2 fold change” value is 0.781.

For RRIRMRPPRLPRPRPRPHHPPRP, the “shrunken log2 fold change” value is -0.234.

As for RRIRVRPPRLPRPRPRPLGLPRP, the “shrunken log2 fold change” value was determined as 0.122.

With RRIRWRPPRLPRPRPRPITPPRP, the “shrunken log2 fold change” value came out at 0.145.

Turning to RRIRFRPPRLPRPRPRPQDGPRP, the “shrunken log2 fold change” value turned out to be 0.0293.

Consider RRIRWRPPRLPRPRPRPPELPRP, for which the “shrunken log2 fold change” value worked out at 0.38.

As to RRIRMRPPRLPRPRPRPHMHPRP, the “shrunken log2 fold change” value was found to be 0.00917.

In the case of RRIRIRPPRLPRPRPRPAGFPRP, the “shrunken log2 fold change” value stood at 0.0153.

In the case of RRIRVRPPRLPRPRPRPSLQPRP, the “shrunken log2 fold change” value is -0.0631.

Turning to RRIRWRPPRLPRPRPRPGWWPRP, the “shrunken log2 fold change” value was 0.336.

RRIRSRPPRLPRPRPRPHDIPRP: the “shrunken log2 fold change” value was -0.0108.
